In patent publication US20180071413A1 (INSERM INSTITUT NATIONAL DE LA SANTE ET DE LA RECHERCHE …, published 2018):

What was measured:
human PD-L1 [1] = target: T1, human PD-L1 (human, UniProt Q9NZQ7 19-290); assay: saturation binding of ^111In-PD-L1.3.1 on cells, 4 h on ice, called Scatchard analysis in the filing; the cell line is not printed on the sheet (MDA-MB-231 used in the subsequent binding assays)
T1 construct: whole, on cells; Target presented on human breast cancer cell lines; The quantitative assays (IRF, IC50, Kd) used MDA-MB-231 cells; also called CD274; Programmed Cell Death 1 Ligand 1
T1 sequence (Q9NZQ7 19-290): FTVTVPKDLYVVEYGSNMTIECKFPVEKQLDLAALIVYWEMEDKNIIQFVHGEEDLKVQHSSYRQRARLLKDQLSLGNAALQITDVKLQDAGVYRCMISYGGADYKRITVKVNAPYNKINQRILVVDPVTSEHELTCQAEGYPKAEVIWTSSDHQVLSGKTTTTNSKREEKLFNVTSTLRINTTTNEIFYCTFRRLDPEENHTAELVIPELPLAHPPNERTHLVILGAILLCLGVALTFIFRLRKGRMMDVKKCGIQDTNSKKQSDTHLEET
Description: (§1) Cells were cultured to confluency in six-well plates and were incubated for 4 h on ice with increasing concentrations ¹¹¹In-PD-L1.3.1 (3-3000 pM) in 1 ml RPMI1640 containing 0.5% BSA. Non-specific binding was determined by co-incubation with 100 nM PD-L1.3.1. After incubation, cells were washed with PBS and the cell-associated activity was measured in a shielded well-type gamma counter. The specific binding (total binding—nonspecific binding) was plotted against the bound/free ratio. Data were analyzed by linear regression to determine PD-L1 receptor density per cell and to determine the Kd of ¹¹¹In-PD-L1.3.1.

human PD-L1 [2] = target: T1, human PD-L1; assay: Scatchard analysis on cells, 4 h on ice, 3-3000 pM ^111In-PD-L1.3.1, non-specific binding determined with 100 nM unlabeled antibody; 111In-labeled antibody, Scatchard analysis; MDA-MB-231 cells by paragraph 130
Description: as §1

human PD-L1 [3] = target: T1, human PD-L1; assay: competition on MDA-MB-231 cells, 4 h on ice: unlabeled PD-L1.3.1 (1-1000 pM) against 20 pM ^111In-PD-L1.3.1, gamma counter; unlabeled antibody, competition on MDA-MB-231 cells
Description: MDA-MB-231 cells were cultured to confluency in six-well plates. The 50% inhibitory concentration (IC₅ₒ) of PD-L1.3.1 blocking of ¹¹¹In-PD-L1.3.1 binding was determined by incubating the cells for 4 h on ice in 1 ml RPMI1640 0.5% BSA, containing 20 pM ¹¹¹In-PD-L1.3.1 (1 kBq) and increasing concentrations of unlabeled PD-L1.3.1 (1-1000 pM). After incubation, cells were washed with PBS and the cell-associated activity was measured in a gamma counter. The IC₅₀ was defined as the antibody concentration that was required to inhibit binding of the radio labeled antibody by 50%. IC₅₀ values were calculated using GraphPad Prism.

B1: ^111In-DTPA-PD-L1.3.1 (antibody, V domains shown)
VH: EVQLQQSGTELVKPGASVKLSCTTSGFNIQDTYMHWVKQRPEQGLEWIGWIDPANGNTKYDPKFQGKATIIADTSSNTAYLQLRGLTSEDTAVYYCARSGVSTAHFDYWGQGTTLTVSS
VL: QIVLSQSPAILSASPGEKVTMTCRASSSVSFMHWYQQKPGSSPKPWIYATSNLASGVPTRFSGSGSGTSYSLTLSRVEAEDAATYYCQQWSSYPRTFGGGTKLEIK
modifications: ITC-DTPA conjugate chelating ^111In; conjugated residues and chain not stated
In the case of B1, the Kd (human PD-L1 [1]) is reported as 1 nM and the Kd (human PD-L1 [2]) is reported as 0.97 nM.

B2: PD-L1.3.1 antibody (unlabeled) (antibody, V domains shown)
VH: EVQLQQSGTELVKPGASVKLSCTTSGFNIQDTYMHWVKQRPEQGLEWIGWIDPANGNTKYDPKFQGKATIIADTSSNTAYLQLRGLTSEDTAVYYCARSGVSTAHFDYWGQGTTLTVSS
VL: QIVLSQSPAILSASPGEKVTMTCRASSSVSFMHWYQQKPGSSPKPWIYATSNLASGVPTRFSGSGSGTSYSLTLSRVEAEDAATYYCQQWSSYPRTFGGGTKLEIK
notes: also called unlabeled PD-L1.3.1
Binder B2 has an IC50 (human PD-L1 [3]) of 0.15 nM.
